From patent US20250051735A1 (VANDERBILT UNIVERSITY, published 2025)

Molecular target: the molecule itself
Experiment: sedimentation velocity analytical ultracentrifugation (self-association)
Experimental: Sedimentation velocity data were collected at 50,000 rpm and 20° C. on a Beckman Coulter ProteomeLab XL-I analytical ultracentrifuge following standard protocols (Zhao, H., et al. Curr Protoc Protein Sci, 2013 Chapter 20, Unit20 12). 2-channel, 12 mm centerpiece cells were used, and sedimentation was monitored with the absorbance (280 nm) and Rayleigh interference (655 nm) detection systems. A continuous c(s) distribution of Lamm equation solutions, as implemented in SEDFIT (Schuck, P. Biophys J 2000 78:1606-1619), modeled the sedimentation data. […] (Cole, J. L., et al. Methods Cell Biol 2008 84:143-179) provided the solution densities ρ, solution viscosities η, and protein partial specific volumes required for the analysis.
The N-terminus is required for transposase dimerization prior to transposon end binding. Although an attempt was made to explore the role of the piggyBac transposase N-terminus using purified proteins, no soluble N-terminally truncated transposases was recovered under conditions successfully used for the WT transposase in EXPI293F cells (Chen, Q., et al. Nat Commun, 2020 11:3446). To circumvent this, a TEV protease cleavage site was introduced between resides 74 and 75 which allowed expression and purification of a full-length protein and then proteolytical removal of the first 74 amino acids.

B1: PB74-539 transposase generated by proteolytic cleavage (TEV-cleaved TEVΔ74PB1-539) (enzyme)
chain: GSSLASNRILTLPQRTIRGKNKHCWSTSKSTRRSRVSALNIVRSQRGPTRMCRNIYDPLLCFKLFFTDEIISEIVKWTNAEISLKRRESMTGATFRDTNEDEIYAFFGILVMTAVRKDNHMSTDDLFDRSLSMVYVSVMSRDRFDFLIRCLRMDDKSIRPTLRENDVFTPVRKIWDLFIHQCIQNYTPGAHLTIDEQLLGFRGRCPFRMYIPNKPSKYGIKILMMCDSGTKYMINGMPYLGRGTQTNGVPLGEYYVKELSKPVHGSCRNITCDNWFTSIPLAKNLLQEPYKLTIVGTVRSNKREIPEVLKNSRSRPVGTSMFCFDGPLTLVSYKPKPAKMVYLLSSCDEDASINESTGKPQMVMYYNQTKGGVDTLDQMCSVMTCSRKTNRWPMALLYGMINIACINSFIIYSHNVSSKGEKVQSRKKFMRNLYMSLTSSFMRKRLEAPTLKRYLRDNISNILPNE
Q: Does B1 bind?
A: Result: no binding
